Experimental data published in US20180095098A1.

Biological target: Human β2-adrenergic receptor, amino-terminal FLAG epitope tag, truncated after residue 365, biotinylated, bound to the agonist BI-167107 (human) (UniProt P07550)
Assay: SPR (Biacore T100, 25 °C), biotinylated BI-167107-bound receptor on SA chip, single-cycle kinetics

How did the fold slowing of dissociation against wild-type Nb80 turn out when “Nb6B9, high affinity variant of Nb80 (VHH)” was run?
Its fold slowing of dissociation against wild-type Nb80 is > 10 fold.
